Common to all, as to assay type: in vivo, humans
Series [1] can be described thus: SPECT/CT based dosimetry of tumors. Conditions: human, iv, total radioactivity. On the procedure:
(§1) Patients were allowed a light breakfast at the day of each infusion. […] Entresto® was given at an oral dose of 100 mg, containing 48.6 mg sacubitril and 51.4 mg valsartan 2 h before the start of one of the two infusions. Vital signs were recorded, and a 12-lead electrocardiogram was obtained before and after each injection. Adverse events were recorded and graded according to Common Terminology Criteria for Adverse Events (CTCAE) version 4.03.
(§2) Planar whole-body scintigraphy and quantitative SPECT/CT acquisitions of neck/thorax/abdomen/pelvis were acquired with a hybrid SPECT/CT system (Siemens Intevo, Siemens Erlangen, Germany) at 1, 4, 24 and 72 h post injection (p.i.).
(§3) Calibration of the SPECT/CT camera was performed with a National Institute of Standards and Technology traceable selenium-75 point source (uncertainty in activity 3%) every four weeks. Acquisitions (medium-energy low-penetration collimator) were performed in step and shoot mode using 20 s/view, 64 views/head using a non-circular orbit with a 180° detector configuration in a 128 × 128 matrix. The photo-peak window was set to 208 keV ± 10% (187.2–228.8 keV). Except for the first patient, the quantitative tomographic images (isotropic voxel size 5.08 mm^3) were reconstructed with xSPECT Quant™ (Siemens Healthcare, Siemens Erlangen, Germany) which uses the ordered subset conjugate gradient method (OSCGM) to calculate the quantitative activity distribution. The number of iterations (12, 24 or 60) with one subset and 3D-Gaussian post-filter with full width at half maximum (FWHM) of 16.0 mm and 20.8 mm were selected automatically by the reconstruction algorithm, based on the count statistic. Triple energy window scatter correction, CT-based attenuation correction, and resolution recovery were enabled for all image reconstructions. As the xSPECT Quant™ algorithm was not available at the site initially, images of the first patient were quantitatively reconstructed (isotropic voxel size of 3.9 mm^3) using the OSCGM algorithm with 24 iterations, one subset and a 3D-Gaussian post filter of 10.0 mm FWHM. For these reconstructions, both photo-peak energy windows at 113 keV ± 10% and 208 keV ± 10% were used. All other settings remained as stated above.
(§4) At first a VOI with volume V0 and activity A0 enclosing the tumor and its surrounding background was drawn. Subsequently, the threshold was increased until a new VOI with volume Vspect and activity Aspect separating the tumor activity from background was found. The activity in the tumor at the fourth time point can then be estimated by A4=Aspect-A0-Aspect/V0-VspectVspect-VCT, where the second term is the background correction, with the tumor volume VCT determined in the contrast enhanced CT. Spill in and out of activity from the tumor volume into the background was not considered.
(§5) Time activity curves (TAC) of the tumors were determined using the mean activity of 3 ml threshold VOIs, drawn in the 1, 4, 24 and 72 h p.i. images. A linear model yt=α+λe·t was fitted to the log-transformed data points to estimate the effective half-life Te=ln2/λe . The activity at the first acquisition is then given by A1=A4·e^λe·Δt where Δt is the time difference between the first and fourth acquisition. The total number of disintegrations can then be estimated by N=A1t1/2+∫t1e^-λet^′dt^′ where t1 is the time of the first acquisition.
(§6) The average energy deposition E per disintegration in soft tissue voxels of 3.9 mm^3 and 5.08^3 mm^3 with density ρ=1g/cm^3 was calculated with FLUKA, resulting in the mean tumor dose given by D=N·E/ρ·VCT .
(§7) In case the data was not suitable for single exponential fit, N was calculated numerically using trapezoidal integration until the fourth time point and after with analytical integration of the exponential decay using the half-live of Lutetium-177.
(§8) The energy distribution in ICRP soft tissue of a Lu-177 point source was calculated with the MC-Simulation toolkit FLUKA version 4.1.0.

The subject of series [2] is medullary thyroid carcinoma tumors. The series can be described thus: SPECT/CT based dosimetry of tumors. To be noted: for Mean tumor dose: SPECT/CT dosimetry. On the procedure:
as §1, §2, §3, §4, §5, §6, §7, §8

A short description of the next series: Dosimetry of stomach. To be noted: for Stomach dose: gastric wall. On the procedure: as §2
A conservative segmentation approach was adopted for gastric dosimetry to ensure that the VOI included all activity distributed in the gastric wall. TACs were analyzed in the same way as for the tumor dosimetry with a mono-exponential model. The average absorbed dose D in the gastric wall was then calculated by using D=N·E/m , where N is the total number of disintegrations, E the average energy deposited in tissue and m = 0.15 kg is the mass of the stomach wall.

Like-named read-outs stand apart in the source and are kept apart here.

The results in this text go back to publication PMC10998826 (EJNMMI Research, 2024).

`CSCC[C@H](NC(=O)[C@H](Cc1c[nH]c2ccccc12)NC(=O)CNC(=O)[C@H](Cc1ccc(O)cc1)NC(=O)[C@H](C)NC(=O)[C@@H](CCC(=O)O)NC(=O)[C@@H](CCC(=O)O)NC(=O)[C@@H](CCC(=O)O)NC(=O)[C@@H](CCC(=O)O)NC(=O)[C@@H](CCC(=O)O)NC(=O)[C@@H](CCC(=O)O)NC(=O)CN1CCN(CC(=O)O)CCN(CC(=O)O)CCN(CC(=O)O)CC1)C(=O)N[C@@H](CC(=O)O)C(=O)N[C@@H](Cc1ccccc1)C(N)=O` [[^177Lu]Lu-PP-F11N, [^177Lu]Lu-DOTA-(DGlu)6-Ala-Tyr-Gly-Trp-Met-Asp-Phe-NH2, metal not drawn]: the tissue to tissue ratio in series [1] (tumor / bone marrow, 1.08 GBq, without Entresto premedication, patient 4, 2nd tumor, read-out: Tumor-to-bone marrow dose ratio) turned out to be 1.8; in series [1] (tumor / bone marrow, with Entresto premedication, patient 4, 2nd tumor, read-out: Tumor-to-bone marrow dose ratio), 1.4; in series [1] (tumor / kidney, 1.08 GBq, without Entresto premedication, patient 4, 2nd tumor, read-out: Tumor-to-kidney dose ratio), 1; in series [1] (tumor / kidney, with Entresto premedication, patient 4, 2nd tumor, read-out: Tumor-to-kidney dose ratio), 0.6; in series [1] (tumor / stomach, 1.08 GBq, without Entresto premedication, patient 4, 2nd tumor, read-out: Tumor-to-stomach dose ratio) it was 0.2; in series [1] (tumor / stomach, with Entresto premedication, patient 4, 2nd tumor, read-out: Tumor-to-stomach dose ratio), 0.1. Moreover, the tissue to tissue ratio was 15.7 in series [1] (tumor and bone marrow, 1.08 GBq, without Entresto premedication, patient 7, 2nd tumor, read-out: Tumor-to-bone marrow dose ratio); 30.3 in series [1] (tumor and bone marrow, with Entresto premedication, patient 7, 2nd tumor, read-out: Tumor-to-bone marrow dose ratio); 8.3 in series [1] (tumor and kidney, 1.08 GBq, without Entresto premedication, median, read-out: Tumor-to-kidney dose ratio); 7.8 in series [1] (tumor and kidney, with Entresto premedication, median, read-out: Tumor-to-kidney dose ratio); 11.2 in series [1] (tumor and kidney, with Entresto premedication, patient 7, 2nd tumor, read-out: Tumor-to-kidney dose ratio); 1.5 in series [1] (tumor and stomach, 1.08 GBq, without Entresto premedication, median, read-out: Tumor-to-stomach dose ratio). Besides, the tissue to tissue ratio stood at 1.1 in series [1] (tumor and stomach, with Entresto premedication, median, read-out: Tumor-to-stomach dose ratio); 1.3 in series [1] (tumor and stomach, with Entresto premedication, patient 7, 2nd tumor, read-out: Tumor-to-stomach dose ratio); 9.2 in series [2] (human, tumor and bone marrow, iv, total radioactivity, without Entresto premedication, median, read-out: Tumor-to-bone marrow dose ratio). The Mean tumor dose in series [2] (with Entresto premedication, median of n = 6 tumor lesions) is recorded as 0.74 Gy/GBq; in series [2] (with Entresto premedication, patient 4, 2nd tumor) it was 0.07 Gy/GBq; in series [2] (without Entresto premedication, median of n = 6 tumor lesions) it was 0.28 Gy/GBq; in series [2] (without Entresto premedication, patient 4, 2nd tumor) it was 0.05 Gy/GBq. For the same molecule, in the series “Dosimetry of stomach” (Entresto premedication, eight patients), the “Median absorbed dose of stomach after premedication compared to without” value is 2.1 fold. The Stomach dose is listed as 0.5 Gy/GBq in the series “Dosimetry of stomach” (with Entresto premedication, median); 0.2 Gy/GBq in “Dosimetry of stomach” (without Entresto premedication, median); 0.23 Gy/GBq in “Dosimetry of stomach” (without Entresto premedication, patient 4); 0.17 Gy/GBq in the series “Dosimetry of stomach” (without Entresto premedication, patient 7).
